For series [1], the target named is T1, PARP1 (UniProt P09874 1-1014). As to the kind of experiment: pull-down (FREP); EcoRI and BamHI release; EMSA: 0, 2, 5 or 10 ug PARP1 pre-incubated 30 min with 50 ng DNA probe (Thermo EMSA kit), nondenaturing PAGE; buffer, salt, pH and temperature not given in the. The settings on record: label: 5' biotin. In general terms: A gel shift assay detects complexes by their altered migration in electrophoresis.

Series [2] deals with T1, PARP1. As to the kind of experiment: competition; 40-fold excess over FoxO1-R-B-biotin in FREP; EMSA: 0, 2, 5 or 10 ug PARP1 pre-incubated 30 min with 50 ng DNA probe (Thermo EMSA kit), nondenaturing PAGE; buffer, salt, pH and temperature not given in the.

T1 sequence (P09874 whole entry): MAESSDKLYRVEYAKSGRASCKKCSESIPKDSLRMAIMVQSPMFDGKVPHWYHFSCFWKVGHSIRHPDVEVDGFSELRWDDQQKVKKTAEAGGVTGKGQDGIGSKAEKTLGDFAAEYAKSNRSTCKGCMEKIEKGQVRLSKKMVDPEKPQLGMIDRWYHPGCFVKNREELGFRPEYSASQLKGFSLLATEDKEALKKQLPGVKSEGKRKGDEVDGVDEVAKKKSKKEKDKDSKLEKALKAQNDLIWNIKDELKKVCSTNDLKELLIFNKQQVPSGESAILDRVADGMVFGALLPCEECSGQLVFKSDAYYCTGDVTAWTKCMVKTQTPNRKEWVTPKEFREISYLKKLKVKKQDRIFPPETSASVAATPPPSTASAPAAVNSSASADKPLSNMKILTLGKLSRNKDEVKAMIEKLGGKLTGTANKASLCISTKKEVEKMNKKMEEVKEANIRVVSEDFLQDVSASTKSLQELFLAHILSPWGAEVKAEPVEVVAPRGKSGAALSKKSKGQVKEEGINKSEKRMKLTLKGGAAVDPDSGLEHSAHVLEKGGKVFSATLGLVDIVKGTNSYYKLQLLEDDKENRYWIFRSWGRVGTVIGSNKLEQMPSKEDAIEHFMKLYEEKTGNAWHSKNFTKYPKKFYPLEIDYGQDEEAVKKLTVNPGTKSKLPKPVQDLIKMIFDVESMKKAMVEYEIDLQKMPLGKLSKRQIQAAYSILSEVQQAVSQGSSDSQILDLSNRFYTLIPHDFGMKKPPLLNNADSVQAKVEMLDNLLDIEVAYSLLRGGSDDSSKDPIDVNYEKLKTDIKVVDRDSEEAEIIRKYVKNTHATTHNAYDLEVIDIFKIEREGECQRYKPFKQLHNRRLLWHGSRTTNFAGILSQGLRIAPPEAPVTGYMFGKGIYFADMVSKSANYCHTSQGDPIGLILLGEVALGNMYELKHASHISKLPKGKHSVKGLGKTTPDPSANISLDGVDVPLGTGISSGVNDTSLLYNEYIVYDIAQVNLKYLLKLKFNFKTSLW

B1: FoxO1-R-B-biotin (dsDNA)
DNA 1: AATGATACGGCGACCACCGAGGATCCTCTTGTGGTCTCTTCACGTTTACGAATTCTCGTATGCCGTCTTCTGCTTG
DNA 2: CAAGCAGAAGACGGCATACGAGAATTCGTAAACGTGAAGAGACCACAAGAGGATCCTCGGTGGTCGCCGTATCATT
For the molecule B1, the binding result with PARP1 [1] is “binds”.

B2: FoxO1-R-B (free competitor) (dsDNA)
DNA 1: AATGATACGGCGACCACCGAGGATCCTCTTGTGGTCTCTTCACGTTTACGAATTCTCGTATGCCGTCTTCTGCTTG
DNA 2: CAAGCAGAAGACGGCATACGAGAATTCGTAAACGTGAAGAGACCACAAGAGGATCCTCGGTGGTCGCCGTATCATT
Take B2: the binding result in the series with PARP1 [2] is listed as “binds”.

B3: FoxO1-L-B-biotin (dsDNA)
DNA 1: AATGATACGGCGACCACCGAGGATCCTCACTGTATTCTTGAATTCTCGTATGCCGTCTTCGCTTG
DNA 2: CAAGCGAAGACGGCATACGAGAATTCAAGAATACAGTGAGGATCCTCGGTGGTCGCCGTATCATT
Turning to B3, in the series with PARP1 [1], the binding result is reported as “binds”.

The values above are taken from PMC6987093, “Polymerase independent repression of FoxO1 transcription by sequence-specific PARP1 binding to FoxO1 promoter”.
